Measurements from paper PMC5789848 (2018).

Key:
[1] = biological target: T1, GST-Tax_(CACA) (HTLV-1 Tax with C23 and C29 changed to alanine, N-terminal GST fusion) (HTLV-1, UniProt P03409 1-353, C23A | C29A); assay: BLI
[2] = biological target: T1, GST-Tax_(CACA) (HTLV-1 Tax with C23 and …); assay: BLI; remark: listed apart in the source

Row | Binder | Kd [1] | koff [2]
1 | UPF1-HD_(DE636AA), histidine-tagged (domain or fragment) RYEDAYQYQNIFGPLVKLEADYDKKLKESQTQDNITVRWDLGLNKKRIAYFTLPKTDSDMRLMQGDEICLRYKGDLAPLWKGIGHVIKVPDNYGDEIAIELRSSVGAPVEVTHNFQVDFVWKSTSFDRMQSALKTFAVDETSVSGYIYHKLLGHEVEDVIIKCQLPKRFTAQGLPDLNHSQVYAVKTVLQRPLSLIQGPPGTGKTVTSATIVYHLARQGNGPVLVCAPSNIAVDQLTEKIHQTGLKVVRLCAKSREAIDSPVSFLALHNQIRNMDSMPELQKLQQLKDETGELSSADEKRYRALKRTAERELLMNADVICCTCVGAGDPRLAKMQFRSILIAASTQATEPECMVPVVLGAKQLILVGDHCQLGPVVMCKKAAKAGLSQSLFERLVVLGIRPIRLQVQYRMHPALSAFPSNIFYEGSLQNGVTAADRVKKGFDFQWPQPDKPMFFYVTQGQEEIASSGTSYLNRTEAANVEKITTKLLKAGAKPDQIGIITPYEGQRSYLVQYMQFSGSLHTKLYQEVEIASVDAFQGREKDFIILSCVRANEHQGIGFLNDPRRLNVALTRARYGVIIVGNPKALSKQPLWNHLLNYYKEQKVLVEGPLNNLRESLMQFS | 31.4 nM | 0.000283 s⁻¹
2 | UPF1 helicase core domain (UPF1-HD; aa 295-914), C-terminal hexahistidine (domain or fragment) RYEDAYQYQNIFGPLVKLEADYDKKLKESQTQDNITVRWDLGLNKKRIAYFTLPKTDSDMRLMQGDEICLRYKGDLAPLWKGIGHVIKVPDNYGDEIAIELRSSVGAPVEVTHNFQVDFVWKSTSFDRMQSALKTFAVDETSVSGYIYHKLLGHEVEDVIIKCQLPKRFTAQGLPDLNHSQVYAVKTVLQRPLSLIQGPPGTGKTVTSATIVYHLARQGNGPVLVCAPSNIAVDQLTEKIHQTGLKVVRLCAKSREAIDSPVSFLALHNQIRNMDSMPELQKLQQLKDETGELSSADEKRYRALKRTAERELLMNADVICCTCVGAGDPRLAKMQFRSILIDESTQATEPECMVPVVLGAKQLILVGDHCQLGPVVMCKKAAKAGLSQSLFERLVVLGIRPIRLQVQYRMHPALSAFPSNIFYEGSLQNGVTAADRVKKGFDFQWPQPDKPMFFYVTQGQEEIASSGTSYLNRTEAANVEKITTKLLKAGAKPDQIGIITPYEGQRSYLVQYMQFSGSLHTKLYQEVEIASVDAFQGREKDFIILSCVRANEHQGIGFLNDPRRLNVALTRARYGVIIVGNPKALSKQPLWNHLLNYYKEQKVLVEGPLNNLRESLMQFS | 16.6 nM | 0.00038 s⁻¹
3 | UPF1-HD_(R843S), histidine-tagged (domain or fragment) RYEDAYQYQNIFGPLVKLEADYDKKLKESQTQDNITVRWDLGLNKKRIAYFTLPKTDSDMRLMQGDEICLRYKGDLAPLWKGIGHVIKVPDNYGDEIAIELRSSVGAPVEVTHNFQVDFVWKSTSFDRMQSALKTFAVDETSVSGYIYHKLLGHEVEDVIIKCQLPKRFTAQGLPDLNHSQVYAVKTVLQRPLSLIQGPPGTGKTVTSATIVYHLARQGNGPVLVCAPSNIAVDQLTEKIHQTGLKVVRLCAKSREAIDSPVSFLALHNQIRNMDSMPELQKLQQLKDETGELSSADEKRYRALKRTAERELLMNADVICCTCVGAGDPRLAKMQFRSILIDESTQATEPECMVPVVLGAKQLILVGDHCQLGPVVMCKKAAKAGLSQSLFERLVVLGIRPIRLQVQYRMHPALSAFPSNIFYEGSLQNGVTAADRVKKGFDFQWPQPDKPMFFYVTQGQEEIASSGTSYLNRTEAANVEKITTKLLKAGAKPDQIGIITPYEGQRSYLVQYMQFSGSLHTKLYQEVEIASVDAFQGREKDFIILSCVSANEHQGIGFLNDPRRLNVALTRARYGVIIVGNPKALSKQPLWNHLLNYYKEQKVLVEGPLNNLRESLMQFS | 66.6 nM | 0.000877 s⁻¹
4 | UPF1-HD_(R843C), histidine-tagged (domain or fragment) RYEDAYQYQNIFGPLVKLEADYDKKLKESQTQDNITVRWDLGLNKKRIAYFTLPKTDSDMRLMQGDEICLRYKGDLAPLWKGIGHVIKVPDNYGDEIAIELRSSVGAPVEVTHNFQVDFVWKSTSFDRMQSALKTFAVDETSVSGYIYHKLLGHEVEDVIIKCQLPKRFTAQGLPDLNHSQVYAVKTVLQRPLSLIQGPPGTGKTVTSATIVYHLARQGNGPVLVCAPSNIAVDQLTEKIHQTGLKVVRLCAKSREAIDSPVSFLALHNQIRNMDSMPELQKLQQLKDETGELSSADEKRYRALKRTAERELLMNADVICCTCVGAGDPRLAKMQFRSILIDESTQATEPECMVPVVLGAKQLILVGDHCQLGPVVMCKKAAKAGLSQSLFERLVVLGIRPIRLQVQYRMHPALSAFPSNIFYEGSLQNGVTAADRVKKGFDFQWPQPDKPMFFYVTQGQEEIASSGTSYLNRTEAANVEKITTKLLKAGAKPDQIGIITPYEGQRSYLVQYMQFSGSLHTKLYQEVEIASVDAFQGREKDFIILSCVCANEHQGIGFLNDPRRLNVALTRARYGVIIVGNPKALSKQPLWNHLLNYYKEQKVLVEGPLNNLRESLMQFS | 53.8 nM | 0.000437 s⁻¹
